Experimental data published in paper PMC10620092, “Structure and electromechanical coupling of a voltage-gated Na^+/H^+ exchanger” (Nature, 2023).

Biological target: the molecule itself
Experiment: cryo-EM structure; 3 mg/ml SLC9C1 in GDN detergent (50 mM Tris-HCl pH 7.5, 150 mM NaCl, 0.02% GDN); C2 symmetry, symmetry expansion and masked refinement for the VSDs

B1: Strongylocentrotus purpuratus (sea urchin) SLC9C1, full length, GFP-TwinStrep tag removed by TEV (natural protein, UniProt A3RL54 30-1325, looked up)
chain: SSGGSGHTPTTQATHADDHDLTTHNGTEEHDDGHDDGHDDLHAHAPKVIVFISGSCLFGAISRSLFKKLPIPYTVVLLILGAILGVVASNVPLVEEHTRDVAHMDPHVLLQIFLPVLIFESAFAMDVHTFMRSFSQVCILALFGLVVASVLTAVLAMNLFNYNWNFSEAMMFGAIMSATDPVAVVALLKDLGASKQLGTIIEGESLLNDGCAIVIFNVFMKMVFFPQLTSTVGQNVLYFLQVAVAGPLWGYAVAKVTVFFLSHIFNDALVEITITLAATYLTYYIGDIWLEVSGVLAVVVLGLIVNAEKTSISPEVEVFLHRFWEMLAYLANTLIFMMVGVVVTQKALVAVDKMDWFYLIILYLAITIIRGMVISLFSPILSRIGYGLTWRNAVIMTWGGLRGAVGLALALVVENLAGNDVIGSKFLFHTAGIVVLTLVINATTIQTLLRILGMSDISIPKRLAMAGAVRRIHEGQNRTLNMLKSDRFLADADWDIATAACEISDPYSALSDDENAPADELTLGERKSVCPGCKAMVPNEPSPREFADMMEEARLRMLKAEKISYWKQFEHGMLAREALRLLVQHAEVAADEKDQFILVDDLKKSWQIKGIYPWLKRKLEDLISEKKIAAIPMPKYKLGKLMYKICHHMAFEVTINIAIVLNIVPIIMEFVVQDKMASVSTMAAPGSTVSSEPSSLQKIEDALRISNYVFFVIYAIEAIVKILGLGRHYIVSHWNKFDAFILVVALVDIIIAETLLKGSITINLSSIKVVKLFRLLRGLRMLRLTKALIPKLILVVNGKINNQLSLGYDVGKGYIIGEEEVGKIIDRMVDNKKILRELKHISETGRLQVVKELGLLQREHPGIAVSVKTRQAIRTILNHSRETIHELQGAGLLDEMEAHKLELTVEIKMKRLMNAPSSIPPPPPENLLKNVSWLAGDMKLIDFIKARASLLHFDYGEVIVREGDESDGLFLIVSGLVKLYGKSAFLDHDNPPVTAGSEENEVFEDYLTVGNVIGEMGVLTKKPRNATVTCETTVQVYFITAEDMNIAIDTFTLYPSLEYRLWRVVAIRIATPLIMEQMAFQGWTQEKVKLHLERGYLVDLAESHFQFNIDATLEDVILINGTAYNAHTREEIRSPCLISRTVHKLTFQYTATEEPRLFVVRNAEYNGPILDGRLDVDSKRSLISITEISSNMCLKHAAELRQKNSKVMLSRKSSGAAAKEEEDCIPNTSDVEQAAGVSPSVPTKTTPKPKSFLPSLGLSMSKERVNGEAVEESPVKTKQGEETPETEEGAAPRVNV
notes: synthesised gene in pcDNA3.1(+); A TEV recognition site follows the protein; what is left of it after cleavage stays at the C terminus; also called sperm-specific Na+/H+ exchanger SLC9C1; SLC9C1(WT); source: for one sample further reconstituted into MSP1E2 nanodiscs with yeast polar lipids; not shown: eGFP, C-terminal, cleaved; TwinStrep, C-terminal, cleaved; His8, C-terminal, cleaved
  stoichiometry N: 2
